Assay results reported in the Immune Epitope Database (IEDB).

Experiments:
HLA-B*18:01 = experiment: IEDB peptide-MHC binding, purified MHC/competitive/radioactivity; filed as Kd, often an IC50 or EC50 that approximates it; ≥ and ≤ were set here for values at or beyond the usual limits of such assays
HLA-B*40:01 = experiment: as above
HLA-B*40:02 = experiment: as above
HLA-B*44:02 = experiment: as above
HLA-B*44:03 = experiment: as above
HLA-B*45:01 = experiment: as above
HLA-B*15:01 [1] = experiment: as above
HLA-B*15:01 [2] = experiment: IEDB peptide-MHC binding, purified MHC/competitive/fluorescence; filed as Kd, often an IC50 or EC50 that approximates it; ≥ and ≤ were set here for values at or beyond the usual limits of such assays
HLA-A*02:01 = experiment: IEDB peptide-MHC binding, purified MHC/competitive/radioactivity; filed as Kd, often an IC50 or EC50 that approximates it; ≥ and ≤ were set here for values at or beyond the usual limits of such assays
HLA-A*02:06 = experiment: as above
HLA-A*68:02 = experiment: as above; details: source organism: Homo sapiens
HLA-A*02:02 = experiment: as above
HLA-A*02:03 = experiment: as above
HLA-A*23:01 = experiment: as above; details: source organism: Dengue virus 1 Brazil/97-11/1997
HLA-A*24:02 = experiment: as above; details: source organism: Dengue virus 1 Brazil/97-11/1997
[3] = source organism: Lymphocytic choriomeningitis virus (strain Armstrong)
[4] = source organism: SARS coronavirus Tor2
[5] = source organism: Vaccinia virus WR
[6] = source organism: Mammarenavirus lassaense
[7] = source organism: Mammarenavirus machupoense
[8] = source organism: Mammarenavirus juninense

FENAILSMTI
Kd (HLA-B*18:01; [3]): 126 nM | Kd (HLA-B*40:01; [3]): 1450 nM | Kd (HLA-B*40:02; [3]): 6.31 nM | Kd (HLA-B*44:02; [3]): 237 nM | Kd (HLA-B*44:03; [3]): 388 nM | Kd (HLA-B*45:01; [3]): 3020 nM

KLHSGVDVF
Kd (HLA-B*15:01 [1]; source organism: Dengue virus 4 Philippines/H241/1956): 7.72 nM

LGLNKIVRMY
Kd (HLA-B*15:01 [2]; source organism: Human immunodeficiency virus 1): 1960 nM

ELEALKTEL
Kd (HLA-A*02:01; source organism: Homo sapiens): ≥ 54300 nM | Kd (HLA-A*02:06; source organism: Homo sapiens): ≥ 64600 nM | Kd (HLA-A*68:02): 15900 nM

MEVQSLAMST
Kd (HLA-B*18:01; [4]): 969 nM | Kd (HLA-B*40:01; [4]): 2060 nM | Kd (HLA-B*40:02; [4]): ≥ 20100 nM | Kd (HLA-B*44:02; [4]): 7210 nM | Kd (HLA-B*44:03; [4]): 951 nM | Kd (HLA-B*45:01; [4]): 259 nM

PLESDAVECL
Kd (HLA-A*02:01; source organism: Homo sapiens): ≥ 63100 nM | Kd (HLA-A*02:02; source organism: Homo sapiens): 4230 nM | Kd (HLA-A*02:03; source organism: Homo sapiens): 11900 nM | Kd (HLA-A*02:06; source organism: Homo sapiens): ≥ 68500 nM | Kd (HLA-A*68:02): ≥ 65200 nM

RIEDMFLTSV
Kd (HLA-A*02:01; [5]): 48 nM | Kd (HLA-A*02:02; [5]): 548 nM | Kd (HLA-A*02:03; [5]): 71 nM | Kd (HLA-A*02:06; [5]): 168 nM

MSIDHCSSF
Kd (HLA-B*15:01 [1]; [5]): 0.952 nM

VMAFIAFLRF
Kd (HLA-A*23:01): 846 nM | Kd (HLA-A*24:02): 901 nM | Kd (HLA-B*15:01 [1]; source organism: Dengue virus 1 Brazil/97-11/1997): 62.3 nM

QALTDLGLI
Kd (HLA-A*02:01; source organism: Lassa virus GA391): 3570 nM

NAHKLILSG
Kd (HLA-B*15:01 [1]; [5]): 18100 nM

QNGALAINTF
Kd (HLA-B*15:01 [2]; source organism: Human herpesvirus 4 type 2): ≥ 20000 nM

LVQYRILPM
Kd (HLA-A*02:02; [5]): 14800 nM | Kd (HLA-A*02:03; [5]): 1170 nM | Kd (HLA-A*02:06; [5]): 4670 nM | Kd (HLA-B*15:01 [1]; [5]): 63.3 nM

KENLYIKSI
Kd (HLA-B*18:01; [6]): ≥ 28800 nM | Kd (HLA-B*40:01; [6]): 14200 nM | Kd (HLA-B*40:02; [6]): 19.1 nM | Kd (HLA-B*44:02; [6]): 232 nM | Kd (HLA-B*44:03; [6]): 118 nM | Kd (HLA-B*45:01; [6]): 2150 nM

FERDISNVPF
Kd (HLA-B*18:01; [4]): 32 nM | Kd (HLA-B*40:01; [4]): 20.3 nM | Kd (HLA-B*40:02; [4]): 1950 nM | Kd (HLA-B*44:02; [4]): 578 nM | Kd (HLA-B*44:03; [4]): 629 nM | Kd (HLA-B*45:01; [4]): 6400 nM

NEKVAGFAKF
Kd (HLA-B*18:01; [4]): 1560 nM | Kd (HLA-B*40:01; [4]): ≥ 53700 nM | Kd (HLA-B*40:02; [4]): ≥ 70800 nM | Kd (HLA-B*44:02; [4]): 37.9 nM | Kd (HLA-B*44:03; [4]): 527 nM | Kd (HLA-B*45:01; [4]): 18800 nM

CEEGKLCYLT
Kd (HLA-B*18:01; [7]): 14100 nM | Kd (HLA-B*40:01; [7]): ≥ 69500 nM | Kd (HLA-B*40:02; [7]): 8090 nM | Kd (HLA-B*44:02; [7]): 13200 nM | Kd (HLA-B*44:03; [7]): 16200 nM | Kd (HLA-B*45:01; [7]): 1600 nM

SEFSSLPSYA
Kd (HLA-B*18:01; [4]): 1060 nM | Kd (HLA-B*40:01; [4]): 431 nM | Kd (HLA-B*40:02; [4]): 22.4 nM | Kd (HLA-B*44:02; [4]): 343 nM | Kd (HLA-B*44:03; [4]): 13.1 nM | Kd (HLA-B*45:01; [4]): 25.3 nM

FQRALIFILL
Kd (HLA-B*15:01 [1]; source organism: Dengue virus 2 Jamaica/1409/1983): 117 nM

ILRHSTAHL
Kd (HLA-B*15:01 [2]; source organism: Bacillus anthracis str. A0488): 142 nM

FENAILSMT
Kd (HLA-B*18:01; [3]): 3300 nM | Kd (HLA-B*40:01; [3]): 18400 nM | Kd (HLA-B*40:02; [3]): 32.3 nM | Kd (HLA-B*44:02; [3]): 6480 nM | Kd (HLA-B*44:03; [3]): 6370 nM | Kd (HLA-B*45:01; [3]): 1820 nM

GDYFVLTSHT
Kd (HLA-B*18:01; [4]): ≥ 70500 nM | Kd (HLA-B*40:01; [4]): ≥ 69600 nM | Kd (HLA-B*40:02; [4]): ≥ 37700 nM | Kd (HLA-B*44:02; [4]): ≥ 50900 nM | Kd (HLA-B*44:03; [4]): ≥ 22600 nM | Kd (HLA-B*45:01; [4]): ≥ 70000 nM

CELYHYQECV
Kd (HLA-B*18:01; [4]): ≥ 36200 nM | Kd (HLA-B*40:01; [4]): 1720 nM | Kd (HLA-B*40:02; [4]): 8200 nM | Kd (HLA-B*44:02; [4]): 7850 nM | Kd (HLA-B*44:03; [4]): 4200 nM | Kd (HLA-B*45:01; [4]): 425 nM

NSKNTSMSF
Kd (HLA-B*15:01 [1]; source organism: Dengue virus 3 Martinique/1243/1999): 526 nM

EELIKLRFWF
Kd (HLA-B*18:01; [8]): 748 nM | Kd (HLA-B*40:01; [8]): ≥ 36700 nM | Kd (HLA-B*40:02; [8]): 10400 nM | Kd (HLA-B*44:02; [8]): 680 nM | Kd (HLA-B*44:03; [8]): 132 nM | Kd (HLA-B*45:01; [8]): 9880 nM

NDFVSDADST
Kd (HLA-B*18:01; [4]): ≥ 70500 nM | Kd (HLA-B*40:01; [4]): ≥ 69600 nM | Kd (HLA-B*40:02; [4]): ≥ 70800 nM | Kd (HLA-B*44:02; [4]): ≥ 32700 nM | Kd (HLA-B*44:03; [4]): ≥ 70100 nM | Kd (HLA-B*45:01; [4]): 2600 nM
